The target in this assay is untagged full-length RAC1 Q61L (UniProt P63000 1-192, Q61L). In words: SPR. On the technique in general: In SPR one partner is held on a chip, and binding of the other changes the refractive index at the surface.

A word on the Kd: it is a measure of binding affinity in units of concentration. Higher therefore signals weaker binding.

B1: MBP-tagged full-length CYRI-B (natural protein)
chain: MGNLLKVLTCTDLEQGPNFFLDFENAQPTESEKEIYNQVNVVLKDAEGILEDLQSYRGAGHEIREAIQHPADEKLQEKAWGAVVPLVGKLKKFYEFSQRLEAALRGLLGALTSTPYSPTQHLEREQALAKQFAEILHFTLRFDELKMTNPAIQNDFSYYRRTLSRMRINNVPAEGENEVNNELANRMSLFYAEATPMLKTLSDATTKFVSENKNLPIENTTDCLSTMASVCRVMLETPEYRSRFTNEETVSFCLRVMVGVIILYDHVHPVGAFAKTSKIDMKGCIKVLKDQPPNSVEGLLNALRYTTKHLNDETTSKQIRSMLQ
B1 registered a dissociation constant Kd of 18.3 µM.

Values taken from publication doi:10.1101/2020.12.04.411645 (bioRxiv, 2020).
